From US20240392004A1 (IMMUNOWAKE, published 2024)

Key:
Experiment in all cases: cell-based or functional assay
[1] = molecular target: human PD-1 on cells (HEK-PD-1 reporter cells; activated PBMC) (human, UniProt Q15116 25-288)
[2] = molecular target: human IL-12 receptor complex (IL-12Rβ1 and IL-12Rβ2) (human, UniProt P42701 24-662; Q99665 24-862)
[3] = molecular target: T1, IFN-γ receptor (IFNGR1 and IFNGR2) (UniProt P15260 18-489; P38484 22-337, limits assumed)
T1 sequence (looked up) 1: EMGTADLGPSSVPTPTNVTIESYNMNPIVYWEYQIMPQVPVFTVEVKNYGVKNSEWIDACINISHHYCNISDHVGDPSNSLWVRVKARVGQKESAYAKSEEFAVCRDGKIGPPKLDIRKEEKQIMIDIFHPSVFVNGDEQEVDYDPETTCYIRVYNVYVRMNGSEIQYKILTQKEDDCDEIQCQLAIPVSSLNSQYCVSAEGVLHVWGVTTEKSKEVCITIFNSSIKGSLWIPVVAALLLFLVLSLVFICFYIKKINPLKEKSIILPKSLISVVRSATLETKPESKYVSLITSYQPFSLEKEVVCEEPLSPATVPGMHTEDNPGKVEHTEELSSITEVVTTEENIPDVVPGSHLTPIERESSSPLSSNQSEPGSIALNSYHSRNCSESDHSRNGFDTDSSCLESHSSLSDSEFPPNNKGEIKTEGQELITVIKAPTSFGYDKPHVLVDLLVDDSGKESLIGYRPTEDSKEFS
T1 sequence (looked up) 2: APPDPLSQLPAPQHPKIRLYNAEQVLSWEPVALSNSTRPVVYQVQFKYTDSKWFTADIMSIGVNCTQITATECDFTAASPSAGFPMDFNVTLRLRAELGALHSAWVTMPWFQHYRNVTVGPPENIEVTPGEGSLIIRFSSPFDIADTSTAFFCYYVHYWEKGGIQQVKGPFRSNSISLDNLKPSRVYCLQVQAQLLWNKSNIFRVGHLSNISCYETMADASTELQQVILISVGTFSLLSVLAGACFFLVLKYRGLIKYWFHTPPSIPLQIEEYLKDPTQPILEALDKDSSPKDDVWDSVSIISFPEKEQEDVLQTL

human PD-1 on cells (HEK-PD-1 reporter cells; activated PBMC), sequence (Q15116 25-288): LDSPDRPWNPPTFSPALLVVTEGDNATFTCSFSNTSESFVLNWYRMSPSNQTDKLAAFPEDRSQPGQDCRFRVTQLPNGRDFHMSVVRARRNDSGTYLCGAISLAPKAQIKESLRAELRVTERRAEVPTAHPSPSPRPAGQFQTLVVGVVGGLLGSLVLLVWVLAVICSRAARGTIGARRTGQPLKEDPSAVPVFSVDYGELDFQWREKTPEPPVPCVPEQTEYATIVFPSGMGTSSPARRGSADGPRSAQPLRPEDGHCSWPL
human IL-12 receptor complex (IL-12Rβ1 and IL-12Rβ2), sequence (Q99665 24-862, chain 2 of 2, other chains not shown): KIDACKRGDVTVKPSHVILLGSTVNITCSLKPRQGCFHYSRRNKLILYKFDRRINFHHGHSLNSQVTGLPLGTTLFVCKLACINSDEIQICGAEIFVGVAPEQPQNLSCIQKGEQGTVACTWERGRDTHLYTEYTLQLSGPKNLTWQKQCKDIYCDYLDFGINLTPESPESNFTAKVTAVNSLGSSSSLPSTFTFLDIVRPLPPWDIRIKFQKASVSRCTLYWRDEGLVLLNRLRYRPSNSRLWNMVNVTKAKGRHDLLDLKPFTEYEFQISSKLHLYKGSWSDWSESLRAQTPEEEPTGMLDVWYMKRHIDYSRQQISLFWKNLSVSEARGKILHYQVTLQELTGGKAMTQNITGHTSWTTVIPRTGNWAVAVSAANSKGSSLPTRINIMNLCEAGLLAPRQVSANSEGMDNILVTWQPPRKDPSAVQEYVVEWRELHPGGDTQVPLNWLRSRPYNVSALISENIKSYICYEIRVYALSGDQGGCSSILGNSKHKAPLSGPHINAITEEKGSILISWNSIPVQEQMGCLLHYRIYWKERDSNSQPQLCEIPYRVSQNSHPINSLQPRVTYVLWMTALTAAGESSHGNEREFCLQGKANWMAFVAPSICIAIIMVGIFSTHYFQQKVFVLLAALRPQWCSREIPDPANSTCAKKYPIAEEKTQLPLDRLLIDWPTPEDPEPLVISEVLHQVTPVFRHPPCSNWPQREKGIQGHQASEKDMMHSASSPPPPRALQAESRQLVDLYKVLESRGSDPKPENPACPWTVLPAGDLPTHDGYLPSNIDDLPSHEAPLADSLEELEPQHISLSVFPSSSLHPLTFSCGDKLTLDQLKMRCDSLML

Binder	IFN-γ signal transduction, HEK-IFN-γ-PD-1 [1]	IL-12 signal transduction, HEK-IL-12-PD-1 [1]	IL-12 signal transduction, HEK-IL-12 [2]	IFN-γ signal transduction, HEK-IFN-γ [3]
IL-12(E59A/F60A)/IFN-γ(A23V/A23V)/PD-L2(mut2)-Fc (Fc fusion) chain 1: LFTVTVPKELYIIEHGSNVTLECNFDTGSHVNLGAITAVLQKVENDTSPHRERATLLEEQLPLGKASFHIPQVQVRDEGQYQCIIIYGVAWDYKYLTLKVKASYRKINTHILKVPETDEVELTCQATGYPLAEVSWPNVSVPANTSHSRTPEGLYQVTSVLRLKPPPGRNFSCVFWNTHVRELTLASIDLQSQMEPRTHPTGGGGSGGGIWELKKDVYVVELDWYPDAPGEMVVLTCDTPEEDGITWTLDQSSEVLGSGKTLTIQVKAAGDAGQYTCHKGGEVLSHSLLLLHKKEDGIWSTDILKDQKEPKNKTFLRCEAKNYSGRFTCWWLTTISTDLTFSVKSSRGSSDPQGVTCGAATLSAERVRGDNKEYEYSVECQEDSACPAAEESLPIEVMVDAVHKLKYENYTSSFFIRDIIKPDPPKNLQLKPLKNSRQVEVSWEYPDTWSTPHSYFSLTFCVQVQGKSKREKKDRVFTDKTSATVICRKNASISVRAQDRYYSSSWSEWASVPCSGGGGSGGGSGGGGSRNLPVATPDPGMFPCLHHSQNLLRAVSNMLQKARQTLEFYPCTSEEIDHEDITKDKTSTVEACLPLELTKNESCLNSRETSFITNGSCLASRKTSFMMALCLSSIYEDLKMYQVEFKTMNAKLLMDPKRQIFLDQNMLAVIDELMQALNFNSETVPQKSSLEEPDFYKTKIKLCILLHAFRIRAVTIDRVMSYLNASGGGGSGGGDKTHTCPPCPAPEDEGGPSVFLFPPKPKDTLMISRTPEVTCVVVDVSHEDPEVKFNWYVDGVEVHNAKTKPREEQYNSTYRVVSVLTVLHQDWLNGKEYKCKVSNKALPAPIEKTISKAKGQPREPQVYVYPPSREEMTKNQVSLTCLVKGFYPSDIAVEWESNGQPENNYKTTPPVLDEDGSFALVSKLTVDKSRWQQGNVFSCSVMHEALHNHYTQKSLSLSPGK chain 2: LFTVTVPKELYIIEHGSNVTLECNFDTGSHVNLGAITAVLQKVENDTSPHRERATLLEEQLPLGKASFHIPQVQVRDEGQYQCIIIYGVAWDYKYLTLKVKASYRKINTHILKVPETDEVELTCQATGYPLAEVSWPNVSVPANTSHSRTPEGLYQVTSVLRLKPPPGRNFSCVFWNTHVRELTLASIDLQSQMEPRTHPTGGGSGQDPYVKEAENLKKYFNAGHSDVVDNGTLFLGILKNWKEESDRKIMQSQIVSFYFKLFKNFKDDQSIQKSVETIKEDMNVKFFNSNKKKRDDFEKLTNYSVTDLNVQRKAIHELIQVMAELSPAAKTGKRKRSQMLFRGGGGSGGGGSGGGGSGGGGSQDPYVKEAENLKKYFNAGHSDVVDNGTLFLGILKNWKEESDRKIMQSQIVSFYFKLFKNFKDDQSIQKSVETIKEDMNVKFFNSNKKKRDDFEKLTNYSVTDLNVQRKAIHELIQVMAELSPAAKTGKRKRSQMLFRGGGGGSGGGDKTHTCPPCPAPEKKGGPSVFLFPPKPKDTLMISRTPEVTCVVVDVSHEDPEVKFNWYVDGVEVHNAKTKPREEQYNSTYRVVSVLTVLHQDWLNGKEYKCKVSNKALPAPIEKTISKAKGQPREPQVYVLPPSREEMTKNQVSLLCLVKGFYPSDIAVEWESNGQPENRYMTWPPVLDSDGSFFLYSKLTVDKSRWQQGNVFSCSVMHEALHNHYTQKSLSLSPGK	35%	45%	< 0.2%	< 0.1%
IL-12(E59A/F60A)/IFN-γ(A23V/A23V)/PD-L2(mut4)-Fc (Fc fusion) chain 1: LFTVTVPKELYIIEHGSNVTLECNFDTGSHVNLGAIVAVLLKVENDTSPHRERATLLEEQLPLGKASFHIPQVQVRDEGQYQCIIIYGVAWDYKYLTLKVKASYRKINTHILKVPETDEVELTCQATGYPLAEVSWPNVSVPANTSHSRTPEGLYQVTSVLRLKPPPGRNFSCVFWNTHVRELTLASIDLQSQMEPRTHPTGGGGSGGGIWELKKDVYVVELDWYPDAPGEMVVLTCDTPEEDGITWTLDQSSEVLGSGKTLTIQVKAAGDAGQYTCHKGGEVLSHSLLLLHKKEDGIWSTDILKDQKEPKNKTFLRCEAKNYSGRFTCWWLTTISTDLTFSVKSSRGSSDPQGVTCGAATLSAERVRGDNKEYEYSVECQEDSACPAAEESLPIEVMVDAVHKLKYENYTSSFFIRDIIKPDPPKNLQLKPLKNSRQVEVSWEYPDTWSTPHSYFSLTFCVQVQGKSKREKKDRVFTDKTSATVICRKNASISVRAQDRYYSSSWSEWASVPCSGGGGSGGGSGGGGSRNLPVATPDPGMFPCLHHSQNLLRAVSNMLQKARQTLEFYPCTSEEIDHEDITKDKTSTVEACLPLELTKNESCLNSRETSFITNGSCLASRKTSFMMALCLSSIYEDLKMYQVEFKTMNAKLLMDPKRQIFLDQNMLAVIDELMQALNFNSETVPQKSSLEEPDFYKTKIKLCILLHAFRIRAVTIDRVMSYLNASGGGGSGGGDKTHTCPPCPAPEDEGGPSVFLFPPKPKDTLMISRTPEVTCVVVDVSHEDPEVKFNWYVDGVEVHNAKTKPREEQYNSTYRVVSVLTVLHQDWLNGKEYKCKVSNKALPAPIEKTISKAKGQPREPQVYVYPPSREEMTKNQVSLTCLVKGFYPSDIAVEWESNGQPENNYKTTPPVLDEDGSFALVSKLTVDKSRWQQGNVFSCSVMHEALHNHYTQKSLSLSPGK chain 2: LFTVTVPKELYIIEHGSNVTLECNFDTGSHVNLGAIVAVLLKVENDTSPHRERATLLEEQLPLGKASFHIPQVQVRDEGQYQCIIIYGVAWDYKYLTLKVKASYRKINTHILKVPETDEVELTCQATGYPLAEVSWPNVSVPANTSHSRTPEGLYQVTSVLRLKPPPGRNFSCVFWNTHVRELTLASIDLQSQMEPRTHPTGGGSGQDPYVKEAENLKKYFNAGHSDVVDNGTLFLGILKNWKEESDRKIMQSQIVSFYFKLFKNFKDDQSIQKSVETIKEDMNVKFFNSNKKKRDDFEKLTNYSVTDLNVQRKAIHELIQVMAELSPAAKTGKRKRSQMLFRGGGGSGGGGSGGGGSGGGGSQDPYVKEAENLKKYFNAGHSDVVDNGTLFLGILKNWKEESDRKIMQSQIVSFYFKLFKNFKDDQSIQKSVETIKEDMNVKFFNSNKKKRDDFEKLTNYSVTDLNVQRKAIHELIQVMAELSPAAKTGKRKRSQMLFRGGGGGSGGGDKTHTCPPCPAPEKKGGPSVFLFPPKPKDTLMISRTPEVTCVVVDVSHEDPEVKFNWYVDGVEVHNAKTKPREEQYNSTYRVVSVLTVLHQDWLNGKEYKCKVSNKALPAPIEKTISKAKGQPREPQVYVLPPSREEMTKNQVSLLCLVKGFYPSDIAVEWESNGQPENRYMTWPPVLDSDGSFFLYSKLTVDKSRWQQGNVFSCSVMHEALHNHYTQKSLSLSPGK	40%	49%	< 0.2%	< 0.1%
